# “Also recorded” adds a separate entry of the source. Read-outs that look alike come from different tables or passages of the source. Non-standard residues stand in square brackets, D forms with d. Residues, ends and D or L forms follow the SMILES beside them.
# Columns and labels:
# CCR2 [1] = target: T1, CCR2 (Homo sapiens, UniProt P41597); test: Calcium flux assay, CCL2-induced calcium release on HEK-CCR2; format: cell-based
# T1 construct: expressed in transfected cells
# Experimental: Cytosolic-free calcium assay was measured by fluorescent detection with the HitHunter™ Calcium No WashPLUS (Ca NWPLUS) assay kit (DiscoveRex, #90-0091). Briefly, HEK or CHO expressing the chemokine receptor of interest (5.104) were plated overnight at 37° C., 5% CO2 before pre-loading with a calcium sensitive dye (Ca NWPLUS working reagent) supplemented with probenecid (Sigma-Aldrich, #P8761) to avoid calcium dye leakage from the cells, for 1 h at 37° C. Cells were then treated with control buffer or peptides at various concentrations and appropriate agonist. Signal was measured as function of time on a fluorescent plate reader equipped with fluidic handling (FlexStation 3, Molecular Devices). Maximum change in fluorescence over baseline (peak signal) was used to determine agonist response, as quantified using SoftMax Pro software. All experiments were run in triplicate, and results are representative of at least three independent experiments.
# CCR2 [2] = target: T1, CCR2; test: β-arrestin recruitment assay (PathHunter), CCL2-induced; format: cell-based; conditions: HEK-CCR2
# Experimental: Recruitment of β-arrestin in live cells was measured by chemoluminescence detection with the PathHunter™ eXpress β-Arrestin assay kit (DiscoveRex, #93-00446E1). Briefly, 100 μL PathHunter eXpress cells were expressing CCR2 were plated on a 96-well tissue culture treated plate for 48 hours at 37° C., 5% CO2. Cells were first incubated with ECL1 (C) inverso or control peptide and before adding 10 μL of the agonist, CCL2 diluted in OCC medium to achieve the EC80 determined beforehand or with OCC medium alone, for respectively 60 and 90 min at 37° C., 5% CO2. The reaction was stopped by adding 55 μL of the Working Detection Reagent Solution (PathHunter detection reagent) for 90 min at Room temperature. Chemoluminescent signal was read on a luminescent plate reader (TriStar LB 941, Berthold Technologies, Thoiry, France). Assays were run in triplicates.
# CCR2 [3] = target: T1, CCR2; test: CCL2-Alexa 647 binding assay on HEK-CCR2; conditions: competition binding
# Experimental: Binding was performed with the same cells. 200.000 cells were pre-incubated for 30 minutes at 4° C. in 100 μl buffer (PBS containing 0.5% BSA, 0.2% EDTA and NaN3 0.01%) with recombinant human CCL2 (50 nM, 100 nM and 500 nM), ECL1 (C) inverso (11.3 μM, 28.2 μM and 56.3 μM) or with buffer. After, 50 nM CCL2-alexa 647 (Almac) were add for 30 minutes at 4° C. and washed three times with 1 ml of cold buffer. Cells were incubated with 10 μl anti-human-CCR2 (BD pharmingen) for 30 minutes at 4° C. in the dark and washed three times with 1 ml of cold buffer. Cells and beads were counted on FACSCalibur flow cytometer and data were analysed with FlowJo software.
# CCR2 [4] = target: T1, CCR2; test: Radioligand binding assay, I125-CCL2 on HEK-CCR2; conditions: competition binding
# Experimental: Binding assay was carried out using I125-CCL2 (specific activity 2200 Ci/mmol; Perkin elmer, inc.). 300.000 HEK cells stably expressing CCR2 and native cells were incubated with I125-CCL2 in the presence or absence of recombinant human CCL2 (10 nM or 100 nM) or ECL1 (C) inverso (1-10-30 μM) in 200 μl buffer (PBS containing 0.5% BSA and 0.01% HEPES). After 1 h incubation at 37° C., cells were washed three times with 1 ml of cold washing solution. Gamma emissions were then counted in the cell pellet with gamma counter. Non-specific binding represented less than 15% of total binding and was subtracted from total binding to define specific I125-CCL2 binding.
# CCR2 [5] = target: T1, CCR2; test: Migration assay, HEK-CCR2 induced by CCL2; format: cell-based; conditions: up to 500 μM
# Experimental: (§1) Migration assays were performed in 24-transwell inserts (Corning Costar Avon, France) with 8 μm polycarbonate filter for HEK or CHO cells and 5 μm for MBMC. […] The bottom of each well was filled with 600 μL pre-warmed chemotaxis buffer at indicated chemokine concentration. The plates were then incubated for 4 hours at 37° C. in a 5% CO2 atmosphere. […] Before counting the cells by flow cytometry, mouse leukocytes were immunophenotyped with a mix of fluorescent antibodies (anti-mouse Ly6G-PE, anti-mouse NK1.1-PE, anti-mouse […], anti-mouse 7/4-FITC, BD Biosciences) and HEK expressing chemokine receptors with appropriate fluorescent anti-human chemokine receptor. Data were analysed with FlowJo software and results are expressed as a number of cells migrating in the presence or in the absence of chemoattractant. Experiments were run in triplicate, and results are representative of at least three independent experiments.
# CCR5 = target: T2, CCR5 (Homo sapiens, UniProt P51681); test: Migration assay, HEK-CCR5 induced by CCL5; format: cell-based; conditions: up to 500 μM
# T2 construct: expressed in transfected cells
# Experimental: as §1
# CX3CR1 = target: T3, CX3CR1 (Homo sapiens, UniProt P49238); test: Migration assay, HEK-CX3CR1 induced by CX3CL1; format: cell-based; conditions: up to 500 μM
# T3 construct: expressed in transfected cells
# T3 sequence (P49238 1-355): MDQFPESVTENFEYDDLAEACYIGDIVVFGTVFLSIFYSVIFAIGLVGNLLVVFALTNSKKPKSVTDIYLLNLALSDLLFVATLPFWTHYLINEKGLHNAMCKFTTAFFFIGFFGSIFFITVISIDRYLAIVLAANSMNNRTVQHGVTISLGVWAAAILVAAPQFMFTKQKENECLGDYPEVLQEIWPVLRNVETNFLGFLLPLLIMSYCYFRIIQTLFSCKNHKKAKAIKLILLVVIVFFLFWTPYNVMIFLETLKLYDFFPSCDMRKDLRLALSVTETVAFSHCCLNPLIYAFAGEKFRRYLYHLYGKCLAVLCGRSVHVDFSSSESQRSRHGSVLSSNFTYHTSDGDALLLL
# Experimental: as §1
# mouse monocytes = test: Migration assay, mouse monocytes / leukocytes (MBMC); format: cell-based; conditions: up to 500 μM
# Experimental: as §1
# HEK-CCR2 [6] = system: HEK-CCR2
# HEK-CCR2 [7] = test: Cytotoxicity on HEK-CCR2; conditions: 4 hours of incubation at 37° C., 5% CO2, various concentrations
# Experimental for MBCM: Mouse bone marrow cells (MBMC) were obtained from C57BL/6 mice.
# Cells were immunophenotyped by adding a mix of fluorescent antibodies (anti LY-6G-PE, anti CD11b-PerCP, anti 7/4-FITC, anti F4/80-APC, anti NK-PE) and counted by FACSCalibur flow cytometry with predetermined number of beads (Polybead, carboxylate microsphere Polyscience, Inc) added to the samples. Data were analyzed with FlowJo.
# T1 sequence (P41597 whole entry): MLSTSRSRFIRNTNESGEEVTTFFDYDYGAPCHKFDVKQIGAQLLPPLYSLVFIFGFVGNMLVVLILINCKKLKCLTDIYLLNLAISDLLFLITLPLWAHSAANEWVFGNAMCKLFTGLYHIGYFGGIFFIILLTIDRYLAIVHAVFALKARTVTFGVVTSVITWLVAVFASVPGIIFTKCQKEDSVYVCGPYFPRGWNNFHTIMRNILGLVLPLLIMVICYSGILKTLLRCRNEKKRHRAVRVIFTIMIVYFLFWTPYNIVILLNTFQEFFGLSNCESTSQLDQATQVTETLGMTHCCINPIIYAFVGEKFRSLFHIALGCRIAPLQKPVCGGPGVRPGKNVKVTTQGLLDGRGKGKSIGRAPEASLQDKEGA
# T2 sequence (P51681 whole entry): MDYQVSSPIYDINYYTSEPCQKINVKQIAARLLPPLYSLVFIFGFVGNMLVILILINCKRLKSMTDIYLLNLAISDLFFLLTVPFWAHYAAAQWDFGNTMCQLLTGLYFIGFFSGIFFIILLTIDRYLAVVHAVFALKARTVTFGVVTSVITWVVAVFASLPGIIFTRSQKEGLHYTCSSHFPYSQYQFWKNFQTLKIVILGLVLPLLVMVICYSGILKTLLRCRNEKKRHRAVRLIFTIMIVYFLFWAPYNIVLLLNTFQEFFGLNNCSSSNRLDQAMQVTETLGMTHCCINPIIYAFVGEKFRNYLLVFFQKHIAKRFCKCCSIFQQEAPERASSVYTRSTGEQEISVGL
compound,measurement,setting,value
"CCL2: chemokine, natural agonist of CCR2",EC80 of CCL2 for calcium release,CCR2 [1],0.05 µM
same,EC80 of CCL2 for β-arrestin recruitment,CCR2 [2],0.0125 µM
same,displacement of the binding of CCL2-Alexa-647 with HEK-CCR2,CCR2 [3],could displace dose-dependently; also recorded: displaces dose-dependently
same,displacement of bound [125I]-CCL2 on HEK-CCR2,CCR2 [4],could displace dose-dependently
CKLFTGL [ECL1 (C)],"induction of chemotaxis by the peptide itself, HEK-CCR2",CCR2 [5],did not induced chemotaxis
same,"induction of chemotaxis by the peptide itself, HEK-CCR5",CCR5,did not induced chemotaxis
same,"induction of chemotaxis by the peptide itself, HEK-CX3CR1",CX3CR1,did not induced chemotaxis
same,"induction of chemotaxis by the peptide itself, mouse leukocytes",mouse monocytes,did not induced chemotaxis
same,cytotoxicity on HEK-CCR2,HEK-CCR2 [6],no significant cell death
same,cytotoxicity on MBCM,MBCM,no significant cell death
"CC(C)C[C@@H](N)C(=O)NCC(=O)N[C@@H](C(=O)N[C@H](Cc1ccccc1)C(=O)N[C@H](CC(C)C)C(=O)N[C@H](CCCCN)C(=O)N[C@H](CS)C(=O)O)[C@H](C)O [ECL1 (C) inverso, LGTFLKC] (H-[dL]G[dT][dF][dL][dK][dC]-OH; N-terminus and C-terminus assumed)",cytotoxicity on HEK-CCR2,HEK-CCR2 [7],No cytotoxicity effect

# Source: patent US10253087B2, “CCR2 antagonist peptides” (UNIVERSITE PIERRE ET MARIE CURIE (Paris 6), priority 2011, dated 2019)
